Test results: patent US20190106494A1 (published 2019)

Molecular target: PD-L1 (soluble; 'PD-L1 ligand' of the Octet assay) (UniProt Q9NZQ7 19-238, limits assumed)
Experiment: BLI (Octet RED 96), antibody on anti-human IgG capture sensor, PD-L1 in solution, 1:1 fit
Experimental: Affinity Measurement: The affinity measurement was conducted with Octet RED 96 (ForteBio) instrument at 30 degree Celsius. Briefly, anti-human IgG capture sensor (AHC from ForteBio cat #18-5060) was equilibrated with assay buffer (1× dilution of 10× Kinetics Buffer (ForteBio, Cat #18-5032). Test antibody samples were diluted to 3 ug/mL and allowed to bind to the sensors for 5 min. The sensors were then washed in assay buffer for 3 minutes, and PD-L1 ligand diluted at different concentrations were allowed to bind to the mAb coated on the sensors for 5 minutes. Afterwards, dissociation was followed for 10 minutes in the assay buffer. The sensors could be regenerated by washing in glycine buffer and assay buffer 3 times. The data were fitted with 1:1 binding model using the ForteBio software.

Sequence of PD-L1 (soluble; 'PD-L1 ligand' of the Octet assay) (Q9NZQ7 19-238 limits assumed): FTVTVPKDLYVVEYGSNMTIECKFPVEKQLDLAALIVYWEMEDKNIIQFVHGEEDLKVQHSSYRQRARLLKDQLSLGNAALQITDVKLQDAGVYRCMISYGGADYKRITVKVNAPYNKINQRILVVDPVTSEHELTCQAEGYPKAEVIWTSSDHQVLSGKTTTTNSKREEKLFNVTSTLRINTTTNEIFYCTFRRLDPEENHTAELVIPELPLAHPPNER

B1: 111F1 chimeric anti-PD-L1 antibody (antibody, V domains shown)
VH: CQSVKESEGGLFKPTDTLTLTCTVSGIDLNSIAISWVRQAPGNGLEWIGTIGSSGSAYYASWAKSRSTITRNTSENTVTLEMTSLTAADTATYFCAKEILYYGMDLWGPGTLVTVSS
VL: DPVMTQTPASVSEPVGGTVTINCQASQSISSYLAWYQQKPGQRPKLLIYAASNVEPGVPSRFRGRGSGTQFTLTISDLECDDAATYYCQSTYGSTGGGDYGNAFGGGTKVVVVR
With B1 the Kd was 0.162 nM, the koff was 6.2e-05 s⁻¹ and the kon was 769000 M⁻¹ s⁻¹.
